Measurements taken from the RNAGym collection of RNA variant scans (doi:10.7554/elife.80360).

B1: Hairpin Ribozyme (parent)
chain: GUCCUCUUUCACGUGCGCGUGAAAGAGAGAAGUGAACCAGAGAAACACACGUUGUGGUAUAUUACCUGGUA

Variants of: B1
Test: self-cleavage, relative activity (ratio to wild type); higher = more cleavage; co-transcriptional
For GUCCUCUUUCACGUGCGCGUGAAAGAGAGACGUGAACCAGAGAAACACACGUUGUGGUAUUUUACCUGGUA [A31C A61U], the self-cleavage was 0.0706.
Work on GUCCUCUUUCACGUGCGCGUGAAAGAGAGAAGUGAACCAGAAAAACACACGUUGUGGUAUACUACCUGGUA [G42A U62C] yielded a self-cleavage of 0.133.
For GUCCUCUUUCGCGUGCGCGUGAAAGAGAGAAGUGAACCAGAGAAACACACGUUGUGGUAUAUUCCCUGGUA [A11G A64C], the self-cleavage was 0.114.
In the case of GUCCUCUUUCACGUGCGCGUGAAAGAGAGAAGUAAACCAGAGAAACACACGAUGUGGUAUAUUACCUGGUA [G34A U52A], the self-cleavage is reported as 1.31.
Variant GUCAUCUUUCACGUGCGCGUGAAAGAGAGAAGUGAACCAGAGAGACACACGUUGUGGUAUAUUACCUGGUA [C4A A44G] has a self-cleavage of 0.0937.
Variant GUCCUCUUUCACGUGCGCGUGAAAGAGAGAAGUGAACCAGAGAAAAACACGUUGUGUUAUAUUACCUGGUA [C46A G57U] has a self-cleavage of 0.123.
GUCCUCUUUCACGUGCGCGUGAAAGAGAGGAGUGAACCAGAGAAACACACGUUGUGGUAUAUUACCUGGGA [A30G U70G] gave a self-cleavage of 0.262.
Work on GUCCUCUUUCACGUGCGCGUGAAAGAGAGAAGUGAACCAGAGAAACACACGAUGUGGUAUAUUACCAGGUA [U52A U67A] yielded a self-cleavage of 0.307.
With GUCCUCUUUCACGUGCGCGUGAAAGCGAGAAGUGAACCAGAGAAACGCACGUUGUGGUAUAUUACCUGGUA [A26C A47G] the self-cleavage was 0.187.
GUCCUCUUUCACGUGCACGUGAAAGAGAGAAGUGAACCAGAGAAACACUCGUUGUGGUAUAUUACCUGGUA [G17A A49U] showed a self-cleavage of 0.141.
In the case of GUCCUCUUUCACGUGCGCGUGAAAGAGAGAGGUGAACCAUAGAAACACACGUUGUGGUAUAUUACCUGGUA [A31G G40U], the self-cleavage is reported as 0.168.
Variant GUCCUCUUUCACGUGCGCGUGAAAGAGCGAUGUGAACCAGAGAAACACACGUUGUGGUAUAUUACCUGGUA [A28C A31U] has a self-cleavage of 0.107.
With GUCCUCUUUCACGUGCGCGGGAAAGAGAGAAGUGAACCAGAGAAACACUCGUUGUGGUAUAUUACCUGGUA [U20G A49U] the self-cleavage was 0.148.
For GUCCUCUUUCACGUGCGCGUGAAAGAGAGACGUGAACCAGAGAAACACACGUUGUGGUAUACUACCUGGUA [A31C U62C], the self-cleavage was 0.0677.
For GUCCUCUUUCACGUGCGCGUGAAAGAGAGAAGUGAACCAGAGAAACACACGUUGUGGUCUAUUACCUCGUA [A59C G68C], the self-cleavage was 0.227.
Variant GUCCUCUUUCACGUGCGCGUGAAAUAGAGAAGUGAACCAGAGAAACACCCGUUGUGGUAUAUUACCUGGUA [G25U A49C] has a self-cleavage of 0.179.
With GUCCUCUUUCACGUGCACGUGAAAGAGAGAAGUGAACGAGAGAAACACACGUUGUGGUAUAUUACCUGGUA [G17A C38G] the self-cleavage was 0.198.
GUCCUCUUUCACGUUCGCGUGAAAGAGAGAAGUGAACCAGAGAAACACACGUUGUUGUAUAUUACCUGGUA [G15U G56U] showed a self-cleavage of 0.0866.
With GUCCUCUUUCACAUGCGCGUGAAAGAGAGAAGUGAACCAGGGAAACACACGUUGUGGUAUAUUACCUGGUA [G13A A41G] the self-cleavage was 0.777.
Variant GUCCUCUUUCACGUGUGCGUGAAAGAGAGAAGUGAACCAGGGAAACACACGUUGUGGUAUAUUACCUGGUA [C16U A41G] has a self-cleavage of 0.809.
Variant GUCCUCUUUCACGUGCGCGUGAAAGAGAGAAGUGAACCAGAGAAACUCACGUUGUUGUAUAUUACCUGGUA [A47U G56U] has a self-cleavage of 0.148.
Work on GUCCUCUUUCACGUGCGCGUGAAAGAGAGAAGUGAACCAGAGAAACACACGUUGAGGUAUACUACCUGGUA [U55A U62C] yielded a self-cleavage of 0.229.
Variant GUCCUCUUUCACGUGCGCGUGAAAGAGAGAAGUGAACCAGAGUAACACACAUUGUGGUAUAUUACCUGGUA [A43U G51A] has a self-cleavage of 0.247.
GUCCUCUUUCACGCGCGCGUGAAAAAGAGAAGUGAACCAGAGAAACACACGUUGUGGUAUAUUACCUGGUA [U14C G25A] gave a self-cleavage of 0.734.
Work on GUCCUCUUUCACGUGCGGGUGAAAGAGAGAAGUGAACCAGAGAAACACACGUUGUGGUACAUUACCUGGUA [C18G U60C] yielded a self-cleavage of 1.02.
In the case of GUCCUCUUUCACGUGCGCGGGAAAGAGACAAGUGAACCAGAGAAACACACGUUGUGGUAUAUUACCUGGUA [U20G G29C], the self-cleavage is reported as 0.18.
GUCCUCUUUGACGUGCGCGUGAAAGCGAGAAGUGAACCAGAGAAACACACGUUGUGGUAUAUUACCUGGUA [C10G A26C] showed a self-cleavage of 0.383.
GUCCUCUUUCACGUGCGCGUGAAAGAGAGAAGUGAACCAGAGAAACCCACCUUGUGGUAUAUUACCUGGUA [A47C G51C] showed a self-cleavage of 0.377.
In the case of GUCCUCUUUCACGUGCGCGUGAAAGAGAGAAGUGAACCAGAGAAACACACGUUGUGGUAUCUAACCUGGUA [A61C U63A], the self-cleavage is reported as 0.177.
GUCCUCUUUCACGGGCGCGUGAAAGAGAGAAGUGAACCAGAGAAACACACGUUGUGGUAUAUUACCUGGUU [U14G A71U] showed a self-cleavage of 0.678.
With CUCCUCUUUCACGUGCGCGUGAAAGAGAGAAGUGAACCAGAGAAACACACGUUGUGGUAUAUUACCUGGUG [G1C A71G] the self-cleavage was 0.313.
Variant GCCCUCUUUCACGUGCGCGUGAAAGAGAGAAGUCAACCAGAGAAACACACGUUGUGGUAUAUUACCUGGUA [U2C G34C] has a self-cleavage of 0.208.
GUCCUCUUUCACGUGCGUGUGAAAGAGAGAAGUGAACCAGAGAAACACACGUUGUGGUAUUUUACCUGGUA [C18U A61U] showed a self-cleavage of 0.22.
GUCCUCUUUCACGUGCGCGUGAAAGAGAGAAGUGAACCAGAUAAACACAGGUUGUGGUAUAUUACCUGGUA [G42U C50G] gave a self-cleavage of 0.26.
Variant GUCCUCUUUCACGUGCGCGUAAAAGAGAGAAGUGAACCAGAGAAACACACGUUGUGGUAUAUUACUUGGUA [G21A C66U] has a self-cleavage of 0.447.
GUCCUCUUUCACGUGCGCGUGAAAGAGAGAAGGGAACCAGAGAAGCACACGUUGUGGUAUAUUACCUGGUA [U33G A45G] showed a self-cleavage of 0.0332.
Variant GUCCUCUUUCACGUUCGCGUGAAAGAGAGAAGUGAACCAUAGAAACACACGUUGUGGUAUAUUACCUGGUA [G15U G40U] has a self-cleavage of 0.206.
Variant GUCCUCUUUCACGUGCGCGUGAAAGAGAGAAGUGAACCAGAGAAACACGCGUUGUGGUAUAUUGCCUGGUA [A49G A64G] has a self-cleavage of 0.155.
